{"source": "patent US20250319154A1", "target": "leukocyte function antigen (LFA-1) on THP-1 cells (human) (UniProt P20701)", "sequence (P20701 26-1170, chain 1 of 2)": "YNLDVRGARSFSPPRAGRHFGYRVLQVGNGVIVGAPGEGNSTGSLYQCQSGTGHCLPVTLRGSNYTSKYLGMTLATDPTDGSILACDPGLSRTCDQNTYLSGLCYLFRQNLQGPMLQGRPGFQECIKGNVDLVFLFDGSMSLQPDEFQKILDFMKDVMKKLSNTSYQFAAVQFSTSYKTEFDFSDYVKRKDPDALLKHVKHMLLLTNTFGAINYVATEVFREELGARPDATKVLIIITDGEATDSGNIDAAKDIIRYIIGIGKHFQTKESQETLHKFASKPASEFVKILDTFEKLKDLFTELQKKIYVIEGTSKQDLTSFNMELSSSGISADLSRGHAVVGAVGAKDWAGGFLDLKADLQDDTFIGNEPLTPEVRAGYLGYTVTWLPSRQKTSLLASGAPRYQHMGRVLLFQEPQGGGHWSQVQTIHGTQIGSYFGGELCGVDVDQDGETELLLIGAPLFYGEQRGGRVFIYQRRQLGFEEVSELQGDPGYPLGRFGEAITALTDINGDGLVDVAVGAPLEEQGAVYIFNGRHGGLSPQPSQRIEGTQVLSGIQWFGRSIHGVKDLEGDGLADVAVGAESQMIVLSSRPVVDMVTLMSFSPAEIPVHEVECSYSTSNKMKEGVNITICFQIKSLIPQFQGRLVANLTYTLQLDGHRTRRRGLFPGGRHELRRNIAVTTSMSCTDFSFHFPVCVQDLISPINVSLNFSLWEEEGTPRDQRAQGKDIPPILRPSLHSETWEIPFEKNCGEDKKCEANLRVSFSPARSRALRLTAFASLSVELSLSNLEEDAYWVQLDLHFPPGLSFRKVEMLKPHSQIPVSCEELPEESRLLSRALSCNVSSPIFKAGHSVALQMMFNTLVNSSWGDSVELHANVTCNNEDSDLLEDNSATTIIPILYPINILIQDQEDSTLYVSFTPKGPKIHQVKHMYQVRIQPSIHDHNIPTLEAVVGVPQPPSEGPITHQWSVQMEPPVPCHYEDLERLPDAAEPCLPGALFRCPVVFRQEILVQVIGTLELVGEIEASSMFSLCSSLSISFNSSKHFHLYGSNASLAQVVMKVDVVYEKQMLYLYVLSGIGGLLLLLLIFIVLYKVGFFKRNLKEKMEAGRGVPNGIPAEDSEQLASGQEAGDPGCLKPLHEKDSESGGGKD", "sequence (P05107 23-769, chain 2 of 2, further chain)": "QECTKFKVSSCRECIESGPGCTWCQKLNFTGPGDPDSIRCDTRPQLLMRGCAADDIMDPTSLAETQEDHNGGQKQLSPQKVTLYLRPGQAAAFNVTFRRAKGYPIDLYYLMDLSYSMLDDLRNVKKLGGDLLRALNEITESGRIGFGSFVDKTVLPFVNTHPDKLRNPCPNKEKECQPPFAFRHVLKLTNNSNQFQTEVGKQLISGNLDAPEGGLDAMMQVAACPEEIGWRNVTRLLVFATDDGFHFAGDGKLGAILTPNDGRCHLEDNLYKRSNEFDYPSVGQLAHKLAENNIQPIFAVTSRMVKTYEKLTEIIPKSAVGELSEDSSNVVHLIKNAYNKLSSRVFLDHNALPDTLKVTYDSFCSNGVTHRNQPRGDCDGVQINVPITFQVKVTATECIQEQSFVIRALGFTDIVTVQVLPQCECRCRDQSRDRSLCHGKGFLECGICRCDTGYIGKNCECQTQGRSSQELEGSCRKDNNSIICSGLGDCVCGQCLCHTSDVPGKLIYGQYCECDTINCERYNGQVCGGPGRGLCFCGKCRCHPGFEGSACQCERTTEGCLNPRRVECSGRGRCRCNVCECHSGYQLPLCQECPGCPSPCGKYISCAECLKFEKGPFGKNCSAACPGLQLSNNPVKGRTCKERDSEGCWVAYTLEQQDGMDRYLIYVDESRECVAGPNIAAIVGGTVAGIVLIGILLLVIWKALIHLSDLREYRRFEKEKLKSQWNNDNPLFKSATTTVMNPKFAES", "test": "cell-based or functional assay"}
{"substance": "Leukotoxin (LtxA) polypeptide isolated from Aggregatibacter actinomycetemcomitans (from UniProt P16462 1-1055)", "values": [{"measurement": "10%-maximal effective concentration (EC10), calculated from an in vitro model using THP-1 cells", "value": 0.02, "unit": "µg/mL"}]}
